Experimental data reported in article PMC2659011.

What was measured:
purified protein [1] = substrate: O=C(O)/C=C/Cl; test: purified protein; settings: 20 mM Na2HPO4 pH 9.0, 22 °C
purified protein [2] = substrate: O=C(O)/C=C\Cl; test: purified protein; settings: 20 mM Na2HPO4 pH 9.0, 22 °C
[3] = substrate: CC#CC(=O)C(=O)O; test: spectrophotometric hydration assay; assay type: biochemical, Corynebacterium glutamicum; settings: 20 mM Na2HPO4 pH 9.0, 23 °C

B1: CaaD (trans-3-chloroacrylic acid dehalogenase) (Pseudomonas pavonaceae) (protein)
chain 1: PMISCDMRYGRTDEQKRALSAGLLRVISEATGEPRENIFFVIREGSGINFVEHGEHLPDYVPGNANDKALIAKLK
chain 2: PFIECHIATGLSVARKQQLIRDVIDVTNKSIGSDPKIINVLLVEHAEANMSISGRIHGEAASTERTPAVS
B1 gave a Km (purified protein [1]) of 0.028 ± 0.003 mM, a kcat (purified protein [1]) of 1.9 ± 0.6 s⁻¹ and a kcat/Km (purified protein [1]) of 68000 M⁻¹ s⁻¹.

B2: Cg10062 (Corynebacterium glutamicum ATCC 13032) (protein)
chain: PTYTCWSQRIRISREAKQRIAEAITDAHHELAHAPKYLVQVIFNEVEPDSYFIAAQSASENHIWVQATIRSGRTEKQKEELLLRLTQEIALILGIPNEEVWVYITEIPGSNMTEYGRLLMEPGEEEKWFNSLPEGLRERLTELEGSSE
B2 showed a Km (purified protein [1]) of 78 ± 36 mM, a kcat (purified protein [1]) of 0.06 ± 0.01 s⁻¹ and a kcat/Km (purified protein [1]) of 0.8 M⁻¹ s⁻¹. For the same protein, the Km (purified protein [2]) was 19 ± 1 mM, the kcat (purified protein [2]) was 3.5 ± 1.1 s⁻¹ and the kcat/Km (purified protein [2]) was 184 M⁻¹ s⁻¹. The Km [3] was 6.2 ± 0.75 mM, the kcat [3] was 0.33 ± 0.03 s⁻¹ and the kcat/Km [3] was 50 M⁻¹ s⁻¹.
